We go through eight molecules from patent publication US20220340682A1 (Sanofi, published 2022).

Residue numbers refer to the chain shown, from its start.

Assay [1] addresses T1, hCEACAM5, human CEACAM5 ECD (35-685) (human, UniProt P06731 35-685).
T1 construct: produced in HEK293; also called human CEACAM5 protein; human CEACAM5 extracellular domain
T1 sequence: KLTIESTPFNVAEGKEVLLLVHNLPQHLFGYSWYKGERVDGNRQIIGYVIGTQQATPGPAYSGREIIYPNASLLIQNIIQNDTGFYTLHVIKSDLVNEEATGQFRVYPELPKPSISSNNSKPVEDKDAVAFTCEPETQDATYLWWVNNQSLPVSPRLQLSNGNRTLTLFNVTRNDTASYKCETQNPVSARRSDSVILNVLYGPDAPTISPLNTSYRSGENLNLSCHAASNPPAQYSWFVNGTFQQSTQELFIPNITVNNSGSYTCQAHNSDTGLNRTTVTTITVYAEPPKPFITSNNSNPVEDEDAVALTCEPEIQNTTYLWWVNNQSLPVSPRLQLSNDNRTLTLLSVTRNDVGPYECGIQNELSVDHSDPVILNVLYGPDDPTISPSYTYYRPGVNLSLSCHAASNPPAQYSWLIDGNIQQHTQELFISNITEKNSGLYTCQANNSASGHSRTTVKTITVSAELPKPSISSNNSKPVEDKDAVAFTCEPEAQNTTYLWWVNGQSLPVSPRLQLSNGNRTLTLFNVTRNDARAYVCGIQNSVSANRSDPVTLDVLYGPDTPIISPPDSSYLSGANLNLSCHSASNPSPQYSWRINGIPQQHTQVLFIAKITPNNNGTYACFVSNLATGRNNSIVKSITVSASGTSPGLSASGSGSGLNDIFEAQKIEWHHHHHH
In words: SPR screening (Biacore T200) of example 6.4. Here is the method: (§1) To evaluate impact of these modifications, IgGs binding was determined by measuring SPR signals with a Biacore T200 unit (GE Healthcare). Anti-human Fc antibodies were coupled to a Series S CM5 chip via amine coupling kit to reach a level of 10,000 response units (RU). Approximately 300 to 600 RU of each variant were captured by injecting supernatants at 1 μg/mL with a contact time of 60 seconds and a flow rate of 10 μL/min. All experiments were performed at 25° C. with HBS-EP+(10 mM Hepes, 150 mM NaCl, 3 mM EDTA, 0.05% surfactant P20) as the running buffer. In a screening mode, the human CEACAM5 cynomolgus CEACAM5/human A3B3 domain was injected at 50 nM over the captured IgG variants at a flow rate of 30 μLimin for 1 minute. […]
(§2) For each experiment, response data were processed using a reference surface, thereby allowing correction for bulk refractive index changes and any non-specific binding. […] First, the binding activity is estimated by the proportion of the theoretical maximum signal measured (percentage of Rmax, see FIG. 16). Second, the percentage of remaining signal is calculated using dissociation report points (the first one 10 seconds after the end of the injection and the second one 50 seconds after the end of injection) and reflects the stability of binding (see FIG. 17).
(In general: In SPR one partner is held on a chip, and binding of the other changes the refractive index at the surface.)

The target of assay [2] is T2, cCEACAM5, M. fascicularis CEACAM5 ECD (35-688) (Macaca fascicularis).
T2 construct: ECD followed by a 24 amino acid extension containing a His-Tag; also called cynomolgus CEACAM5; monkey CEACAM5
T2 chain: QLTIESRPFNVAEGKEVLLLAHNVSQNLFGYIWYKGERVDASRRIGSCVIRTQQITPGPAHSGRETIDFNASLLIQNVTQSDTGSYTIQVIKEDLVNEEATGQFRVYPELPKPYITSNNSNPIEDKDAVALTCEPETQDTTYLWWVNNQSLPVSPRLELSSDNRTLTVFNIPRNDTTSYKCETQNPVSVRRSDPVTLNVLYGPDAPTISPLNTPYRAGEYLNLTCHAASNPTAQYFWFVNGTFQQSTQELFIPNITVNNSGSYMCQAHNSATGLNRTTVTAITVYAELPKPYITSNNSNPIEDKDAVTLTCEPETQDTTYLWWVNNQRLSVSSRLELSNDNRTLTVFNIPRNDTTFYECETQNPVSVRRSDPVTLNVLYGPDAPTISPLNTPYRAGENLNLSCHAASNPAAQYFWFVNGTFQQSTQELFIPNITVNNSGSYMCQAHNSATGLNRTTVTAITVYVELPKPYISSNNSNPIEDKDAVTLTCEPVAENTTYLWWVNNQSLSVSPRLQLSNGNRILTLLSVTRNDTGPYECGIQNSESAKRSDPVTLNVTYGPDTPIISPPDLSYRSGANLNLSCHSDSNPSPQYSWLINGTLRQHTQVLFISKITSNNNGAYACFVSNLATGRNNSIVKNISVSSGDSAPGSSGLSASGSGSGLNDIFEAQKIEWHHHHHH
Briefly: SPR screening (Biacore T200) of example 6.4. Here is the method:
as §1, §2

In assay [3] the target is T1, hCEACAM5, human CEACAM5 ECD (35-685). Briefly: SPR (Biacore T200), IgG captured by anti-human Fc, antigen injected at 50 nM; % Rmax reached. Here is the method: (§3) To evaluate impact of these modifications, IgGs binding was determined by measuring SPR signals with a Biacore T200 unit (GE Healthcare). Anti-human Fc antibodies were coupled to a Series S CM5 chip via amine coupling kit to reach a level of 10,000 response units (RU). Approximately 300 to 600 RU of each variant were captured by injecting supernatants at 1 μg/mL with a contact time of 60 seconds and a flow rate of 10 μL/min. All experiments were performed at 25° C. with HBS-EP+(10 mM Hepes, 150 mM NaCl, 3 mM EDTA, 0.05% surfactant P20) as the running buffer. In a screening mode, the human CEACAM5 cynomolgus CEACAM5/human A3B3 domain was injected at 50 nM over the captured IgG variants at a flow rate of 30 μLimin for 1 minute. A dissociation phase of 60 seconds was held before the surface was regenerated with 1 pulse injection of 3 M MgCl₂ at a flow rate of 10 μLiminute and a contact time of 30 seconds.
(§4) For each experiment, response data were processed using a reference surface, thereby allowing correction for bulk refractive index changes and any non-specific binding. Data were double referenced using response from blank injections. According to the screening method described in an application note from GE Healthcare (Application note 28-9777-72 AA), two parameters were considered to rank the variants with respect to binding characteristics. First, the binding activity is estimated by the proportion of the theoretical maximum signal measured (percentage of Rmax, see FIG. 16). Second, the percentage of remaining signal is calculated using dissociation report points (the first one 10 seconds after the end of the injection and the second one 50 seconds after the end of injection) and reflects the stability of binding (see FIG. 17).

Assay [4] concerns the target T2, cCEACAM5, M. fascicularis CEACAM5 ECD …. The assay is described as above. How it is done:
as §3, §4

Assay [5] has as its target T1, hCEACAM5, human CEACAM5 ECD (35-685). In words: SPR (Biacore T200), IgG captured by anti-human Fc, antigen injected at 50 nM; % remaining signal after 50 seconds. How it is done: as §3, §4
In assay [6] the target is T2, cCEACAM5, M. fascicularis CEACAM5 ECD …. The assay is described as above. Here is the method: as §3, §4

B1: MAb2_VLg5VHg2 (antibody, human IgG1, V domains shown)
VH: EVQLVESGGGLVQPGGSLRLSCAASGFVFSSYDMSWVRQAPGKGLEWVSYISSGGGITYYADSVKGRFTISRDNSKNTLYLQMNSLRAEDTAVYYCAAHYFGSSGPFAYWGQGTLVTVSS
VL: DIQMTQSPSSLSASVGDRVTITCRASENIFSYLAWYQQKPGKAPKLLIYNTRTLQSGVPSRFSGSGSGTDFTLTISSLQPEDFATYYCQHHYGTPFTFGQGTKLEIK
notes: Fused to human IgG1 and human Ckappa constant domains; tested as IgG in HEK293 supernatants diluted to 1 ug/ml; Parent of the alanine-scanning variants; also called MAb2_VLg5Hg2; humanized MAb2 grafted on IGHV3-23 / IGKV1D-39
On to B1, for which the binding result in assay [1] and in assay [2] was “binds” each time.

B2: LC_T94A (antibody, V domains shown)
VH: B1 VH
VL: B1 VL with T94A
notes: variant of MAb2_VLg5VHg2
For B2, in assay [3], the binding result is “binds”.

B3: LC_T51A-T94A (antibody, V domains shown)
VH: B1 VH
VL: B1 VL with T51A, T94A
notes: combination variant of MAb2_VLg5VHg2
Take B3: the binding result in assay [3] and in assay [4] was “binds” throughout.

B4: LC_T53I-HC_S53A (antibody, V domains shown)
VH: B1 VH with S53A
VL: B1 VL with T53I
notes: as for B3
In the case of B4, the binding result in assay [3] and in assay [4] was “binds” each time.

B5: LC_T51A (antibody, V domains shown)
VH: B1 VH
VL: B1 VL with T51A
notes: variant of MAb2_VLg5VHg2
B5: the binding result in assay [5] and in assay [6] was “binds” each time.

B6: HC_S53A (antibody, V domains shown)
VH: B1 VH with S53A
VL: B1 VL
notes: variant of MAb2_VLg5VHg2
Consider B6, for which the binding result in assay [5] and in assay [6] was “binds” throughout.

B7: LC_S31A-HC_G54Y (antibody, V domains shown)
VH: B1 VH with G54Y
VL: B1 VL with S31A
notes: as for B3
As to B7, the binding result in assay [3] and in assay [4] was “binds” in each case.

B8: LC_S31A (antibody, V domains shown)
VH: B1 VH
VL: B1 VL with S31A
notes: variant of MAb2_VLg5VHg2
B8: the binding result in assay [5] and in assay [6] was “binds” each time.
